In patent US20250269018A1, “COMBINED CANCER THERAPY WITH AN EPITHELIAL CELL ADHESION MOLECULE (EPCAM) INHIBITOR AND A HEPATOCYTE GROWTH FACTOR RECEPTOR (HGFR) INHIBITOR” (ACADEMIA SINICA, priority 2021, published 2025):
Entries after “also recorded” stand apart in the source; their conditions may differ.

Legend:
EpCAM [1] = experiment: Antibody binding to EpCAM wild-type and mutants expressed in HEK293T cells (immunofluorescence, flow cytometry, cellular ELISA); set-up: species or system human; conditions: HEK293T; immunofluorescence, flow cytometry, cellular ELISA; FIG. 8E-8G
Method: FIGS. 8A to 8G. EpAb2-6 binds to both EGF-like domain I and II of EpCAM. HEK293T cells were transfected with full length or EGF like-domain deletion mutant EpCAM-V5. Antibody binding was assessed by (FIG. 8A) Western blotting, (FIG. 8B) flow cytometry, and (FIG. 8C) immunofluorescence. (FIG. 8D) EpCAM mutants were constructed with amino acid substitutions in the EGF-I (Y32A) and EGF-II (L94A, Y95A, or D96A) domains. EpCAM wild-type and mutant proteins were expressed in HEK293T cells. Binding of MT201, EpAb2-6 and EpAb23-1 to EpCAM wild-type and mutants were evaluated by (FIG. 8E) immunofluorescence, (FIG. 8F) flow cytometry, and (FIG. 8G) cellular ELISA.
A previous study identified the binding epitope of EpAb2-6 antibody as the LYD motif in EpCAM, which corresponds to amino acid residues 94-96; in particular, residue 95 (Y95) plays a major role in EpAb2-6 binding (Liao et al., 2015). […] Therefore, we wanted to determine whether the antibody binds to EpCAM at both EGF-like domains of EpEX (FIG. 8A, FIG. 8B, FIG. 8C). To confirm that EpAb2-6 recognizes the LYD motif in EpCAM, we constructed cDNA sequences encoding the first (aa 27-59; EGF-I domain) and second (aa 66-135; EGF-II/TY domain) EGF-like repeats of EpCAM. PCR-based site-directed mutagenesis was then used to introduce mutations into each domain (FIG. 8D). The reactivity of EpAb2-6 antibody toward these EpCAM mutants was evaluated by immunofluorescence (FIG. 8E), flow cytometry (FIG. 8F), and cellular ELISA (FIG. 8G).

EpCAM [2] = molecular target: T1, EpCAM (Homo sapiens, UniProt P16422); conditions: cited from earlier work
T1 sequence (P16422 24-314): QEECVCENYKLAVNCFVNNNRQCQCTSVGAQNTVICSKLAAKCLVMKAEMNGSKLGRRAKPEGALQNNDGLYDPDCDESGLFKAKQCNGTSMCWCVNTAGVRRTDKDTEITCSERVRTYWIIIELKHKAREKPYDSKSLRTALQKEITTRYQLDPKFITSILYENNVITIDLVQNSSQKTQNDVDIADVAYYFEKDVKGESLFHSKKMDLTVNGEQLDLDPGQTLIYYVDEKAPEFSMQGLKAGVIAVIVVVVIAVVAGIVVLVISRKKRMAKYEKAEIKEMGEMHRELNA

ADAM17 and presenilin 2 = experiment: Western blotting of RIP proteins ADAM17 and presenilin 2 in HCT116 cells; type: cell-based, human; conditions: 10 μg/ml 16 h, then EpEX-His 50 nM 15 min, FIG. 7E
Method: FIGS. 7A to 7G. EpAb2-6 binds EpEX and induces apoptosis by F(ab′)2 and inhibits regulated intramembrane proteolysis (RIP) activation and HGFR signaling. (FIG. 7A) Binding affinity of IgG EpAb2-6 (mouse) and F(ab′)2 to EpEX-His (1 μg/ml) coated overnight was checked using ELISA (OD450). (FIG. 7B) HCT116 cells were treated with 100 μg/ml control IgG, Fc, or F(ab′)2 of EpAb2-6 for 24 h. The apoptotic and necrotic cells were quantified by fluorescein annexin V-FITC/PI double labeling. (FIG. 7C) HCT116 and HT29 cells were treated with 10 μg/ml control IgG, MT201, humanized EpAb2-6 (hEpAb2-6) or mouse hybridoma EbAb2-6 (mEpAb2-6) for 24 h. The apoptotic and necrotic cells were quantified by fluorescein annexin V-FITC/PI double labeling. (FIG. 7D) HCT116 cells were treated with 10 μg/ml control IgG, MT201, hEpAb2-6 or mEpAb2-6 for 16 h, followed by treatment with EpEX-His (50 nM) for 15 min. Levels of phosphorylated HGFR, AKT, and ERK, and (FIG. 7E) RIP proteins ADAM17 and presenilin 2 were examined by Western blotting. Anti-EpCAM antibody and crizotinib coordinately induces apoptosis in colon cancer cells. (FIG. 7F) HCT116 and HT29 cells were treated with 10 μg/ml NMIgG or EpAb2-6 and 4 μM HGFR inhibitor crizotinib for 24 h. The apoptotic and necrotic cells were quantified by fluorescein annexin V-FITC/PI double labeling. […] Cell invasion was assessed by a Transwell assay with matrigel after 24 h.
Whole cell extracts were prepared with RIPA buffer (50 mM Tris-HCl pH7.4, 1% NP-40, 0.5% Sodium deoxycholate, 0.1% SDS, 150 mM NaCl, 2 mM EDTA, 50 mM NaF). Protein concentrations of the cell lysates were determined by the Bradford assay. […]
Appropriate horseradish peroxidase-associated secondary antibodies (Millipore) were applied and the membranes were incubated at room temperature (RT) for 1 h. The protein bands were subsequently visualized with chemiluminescence reagents (Millipore) and detected on a BioSpectrum 600 Imaging system (UVP). The protein level was quantified from band intensity using Gel-Pro analyzer 3.1 (Media Cybernetics).

HCT116 cells = experiment: Apoptosis assay, annexin V-FITC/PI double labeling, HCT116; type: cell-based, human; conditions: 10 μg/ml 24 h, FIG. 7C
cancer cells = conditions: comparison in the description; previous work; cited from earlier work
HCT116-Luc cells = experiment: Orthotopic animal model, HCT116-Luc; conditions: EpAb2-6 15 mg/kg, crizotinib 20 mg/kg, FIG. 9D, 9E
Method: (§1) (FIG. 9C) Timeline of the experiment to evaluate EpAb2-6 and/or crizotinib in the in orthotopic animal models. (FIG. 9D) NOD/SCID mice received orthotopic implantation of HCT116-Luc cells and then were treated with control IgG (normal mouse IgG, NMIgG), crizotinib, EpAb2-6, or crizotinib combined with EpAb2-6 starting at 3 days after tumor inoculation (n=5). Tumor growth was monitored by examining bioluminescence with the IVIS 200 Imaging System. (FIG. 9E) HCT116-Luc tumor cells monitored by bioluminescence quantification. […] (FIG. 9H) NOD/SCID mice were orthotopically implanted with HT29-Luc cells and then treated with control IgG, crizotinib, EpAb2-6, or crizotinib combined with EpAb2-6 starting at 3 days after tumor inoculation (n=5). Tumor growth was monitored by examining bioluminescence with an IVIS 200 Imaging System. (FIG. 9I) HT29-Luc tumor cells monitored by bioluminescence quantification.
(§2) Orthotopic tumor models were created as previously reported (Chen et al., 2020). Briefly, NSCID mice were used for orthotopic implantation of HCT116 cells previously infected with Lenti-luc virus (lentivirus containing luciferase gene). […] Tumor development was monitored by bioluminescence imaging. […] Tumor progression was monitored by quantification of bioluminescence. Mouse survival was also monitored.

HT29-Luc cells = experiment: Orthotopic animal model, HT29-Luc; conditions: FIG. 9H, 9I
Method: as §1, §2

## MT201: human anti-EpCAM antibody, adecatumumab (MT201)
EpCAM [1]
  antibody binding to EpCAM with mutations at Y32 (EGF-I domain) or Y95 (EGF-II domain): did not affect
EpCAM [2]; other anti-EpCAM antibodies, comparison in the description
  EpCAM domains bound: target only the well-described EGF I domain of EpCAM; also recorded: binding to domain I only
ADAM17 and presenilin 2
  levels of phosphorylated ADAM17 and presenilin 2: no such effects
HCT116 cells
  apoptosis: did not show such effects
Cancer cells
  inducing apoptosis of cancer cells: failing to

B1: EpAb2-6: anti-EpCAM neutralizing monoclonal antibody targeting EpEX; VH SEQ ID NO: 15, VL SEQ ID NO: 16 (antibody, listed as Homo sapiens, V domains shown)
VH: VKLQESGPELKKPGETVKISCKASGYTFTDYSMHWVKQAPGKGLKWMGWINTETGEPTYADDFKGRFAFSLETSASTAYLQINNLKNEDTATYFCARTAVYWGQGTTVTVSS
VL: DIQMTQSPSSLSASLGERVSLTCRASQEISVSLSWLQQEPDGTIKRLIYATSTLDSGVPKRFSGSRSGSDYSLTISSLESEDFVDYYCLQYASYPWTFGGGTKLEIKRADAAPTVS
EpCAM [1]
  antibody binding to EpCAM with mutations at Y32 (EGF-I domain) or Y95 (EGF-II domain): marked reductions
EpCAM [2]; previous study (Liao et al., 2015)
  binding epitope in EpCAM: LYD motif
HCT116-Luc cells
  bioluminescence intensities: significantly decreased compared to the control IgG or crizotinib alone groups
ADAM17 and presenilin 2
  levels of phosphorylated ADAM17 and presenilin 2: decreased
HCT116 cells
  apoptosis: inducing apoptosis
HT29-Luc cells
  bioluminescence intensities: significantly decreased compared to the control IgG or crizotinib alone groups
Cancer cells
  inducing apoptosis of cancer cells: induces cancer cell apoptosis
